Experimental data: publication PMC10247727, “Stabilization of pre-existing neurotensin receptor conformational states by β-arrestin-1 and the biased allosteric modulator ML314” (Nature Communications, 2023)

Target: T1, enNTS1ΔM4 (minimal methionine variant of the thermostabilized rat neurotensin receptor 1 variant enNTS1) (rat, N262^5.63R (stands in the printed letters) | K263^5.64R (stands in the printed …))
T1 construct: residues left before the receptor after HRV 3C cleavage (so in the source); enNTS1ΔM4: rat neurotensin receptor 1 thermostabilized by directed evolution (enNTS1), four of the ten methionines removed; linker, C-terminal Avi-tag and the rest of the HRV 3C site, as printed (the Avi-tag is named under tags too); In DDM micelles; 13CεH3-methionine labelled or unlabelled; also called …
T1 chain: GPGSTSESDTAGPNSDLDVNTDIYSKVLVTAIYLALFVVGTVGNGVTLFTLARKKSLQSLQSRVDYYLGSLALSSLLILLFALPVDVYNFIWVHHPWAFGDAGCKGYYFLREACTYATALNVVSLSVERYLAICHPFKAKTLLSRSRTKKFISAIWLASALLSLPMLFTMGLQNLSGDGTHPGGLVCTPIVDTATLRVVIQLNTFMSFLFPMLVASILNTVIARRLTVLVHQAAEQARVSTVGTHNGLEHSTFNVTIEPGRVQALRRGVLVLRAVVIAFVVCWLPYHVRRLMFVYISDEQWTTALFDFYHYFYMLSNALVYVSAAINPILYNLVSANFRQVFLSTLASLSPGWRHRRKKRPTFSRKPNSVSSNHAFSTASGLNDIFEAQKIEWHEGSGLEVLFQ
Experiment: NMR (1H-13C HMQC spectra); 66 μM [13CεH3-methionine]-enNTS1ΔM4 with 500 μM ML314 (no NT8-13), 130 μM PIP2 and 2.3x molar equivalents βArr1-3A, 298 K
Settings: both partners purified

binding result: binds
B1: βArr1-3A (pre-activated cysteine-free human β-arrestin-1, I386A/V387A/F388A), tags removed (natural protein)
chain: GPSGDKGTRVFKKASPNGKLTVYLGKRDFVDHIDLVDPVDGVVLVDPEYLKERRVYVTLTVAFRYGREDLDVLGLTFRKDLFVANVQSFPPAPEDKKPLTRLQERLIKKLGEHAYPFTFEIPPNLPSSVTLQPGPEDTGKALGVDYEVKAFVAENLEEKIHKRNSVRLVIRKVQYAPERPGPQPTAETTRQFLMSDKPLHLEASLDKEIYYHGEPISVNVHVTNNTNKTVKKIKISVRQYADIVLFNTAQYKVPVAMEEADDTVAPSSTFSKVYTLTPFLANNREKRGLALDGKLKHEDTNLASSTLLREGANREILGIIVSYKVKVKLVVSRGGLLGDLASSDVAVELPFTLMHPKPKEEPPHREVPENETPVDTNLIELDTNDDDAAAEDFARQRLKGMKDDKEEEEDGTGSPQLNNR
notes: residues left after HRV 3C cleavage (so in the source); human β-arrestin-1, cysteine-free, 3A mutant; Used in the NMR experiments, unlabelled or [U-15N,13C,2H]-labelled; also called hβArr1-3A; βArr-3A; source: E. coli BL21(DE3), purified (Ni-NTA, HRV 3C cleavage, HiTrap Q, SEC); not shown: His6, N-terminal, cleaved; Protein C tag, N-terminal, cleaved
